Positions count from the first letter of the chain named.
B1: SEQ ID NO 135 (receptor)
chain: MGHLPKPTLWAEPGSVITMDQPVTLRCQGGQETQEYRLYREKKTAPWITRIPQELVKKGQFPIPSITWEHAGRYRCYYGSDTSQWSASSDPLELVVTGVYIKPTLSAQPSPVVNSGGNVTLQCDSPFIADGFILCKEGEDEHPQCLNSQPHARGSSRAIFSVGPVSPSRRWWYRCYAYMSWSPYEWSLPSDLLELDVDG
notes: mutated soluble two domain ILT-2
B2: SEQ ID NO 33 (receptor)
chain: MGHLPKPTLWAEPGSVITMDQPVTLRCQGGQETQEYRLYREKKTAPWITRIPQELVKKGQFPIPSITWEHAGRYRCYYGSDTAGRSESSDPLELVVTGVYIKPTLSAQPSPVVNSGGNVTLQCDSQVAFDGFILCKEGEDEHPQCLNSQPHARGSSRAIFSVGPVSPSRRWWYRCYAYVAWAPYEWSLPSDLLELDVDG
notes: as for B1
B3: SEQ ID NO 134 (receptor)
chain: B1 chain with I128V, A129S
notes: as for B1
B4: SEQ ID NO 37 (receptor)
chain: B2 chain with V179P, A182T
notes: as for B1
B5: SEQ ID NO 31 (receptor)
chain: B2 chain with V179P, A180I, A182T
notes: as for B1
B6: SEQ ID NO 129 (receptor)
chain: B1 chain with I128L, A129T
notes: as for B1
B7: SEQ ID NO 132 (receptor)
chain: B1 chain with D130E
notes: as for B1
B8: SEQ ID NO 136 (receptor)
chain: B1 chain with P126M, I128L, A129V
notes: as for B1
B9: SEQ ID NO 128 (receptor)
chain: B1 chain with F127W, I128V
notes: as for B1
B10: SEQ ID NO 130 (receptor)
chain: B1 chain with F127W, I128L
notes: as for B1
B11: SEQ ID NO 35 (receptor)
chain: B2 chain with V179M, A180N
notes: as for B1
B12: SEQ ID NO 133 (receptor)
chain: B1 chain with I128L, A129S, R170K
notes: as for B1
B13: SEQ ID NO 123 (receptor)
chain: B1 chain with E35Q, S83R, P126Q, F127V, I128A, A129F, E141D, W172R, M179D, W181N
notes: mutated soluble two domain ILT-2; also called Clone 64; c64
B14: SEQ ID NO 39 (receptor)
chain: B2 chain with V179M, A180S
notes: as for B1
B15: SEQ ID NO 41 (receptor)
chain: B2 chain with V179M, A180S, A182S
notes: as for B1
B16: SEQ ID NO 131 (receptor)
chain: B1 chain with I128Q
notes: mutated soluble two domain ILT-2; also called c132
B17: SEQ ID NO 66 (receptor)
chain: MHLPKPTLWAEPGSVITMDQPVTLRCQGGQETQEYRLYREKKTAPWITRIPQELVKKGQFPIPSITWEHAGRYRCYYGSDTSQWSASSDPLELVVTGVYIKPTLSAQPSPVVNSGGNVTLQCDSQVAFDGFILCKEGEDEHPQCLNSQPHARGSSRAIFSVGPVSPSRRWWYRCYAYDSNSPYEWSLPSDLLELDVDG
notes: as for B1
B18: SEQ ID NO 116 (receptor)
chain: B17 chain with M18L, D19Q, Q20S
notes: as for B1
B19: SEQ ID NO 117 (receptor)
chain: B17 chain with M18L, D19E, Q20S
notes: as for B1
B20: SEQ ID NO 26 (receptor)
chain: MHLPKPTLWAEPGSVITLQSPVTLRCQGGQETQQYRLYREKKTAPWITRIPQELVKKGQFPIPSITWEHAGRYRCYYGSDTRQWSASSDPLELVVTGVYIKPTLSAQPSPVVNSGGNVTLQCDSQVAFDGFILCKEGEDDHPQCLNSQPHARGSSRAIFSVGPVSPSRRWRYRCYAYMNWAPYEWSLPSDLLELDVDG
notes: as for B1
B21: SEQ ID NO 118 (receptor)
chain: B17 chain with S79T, D80Q, S82A, Q83G, W84R, A86E
notes: as for B1
B22: SEQ ID NO 6 (receptor)
chain: B20 chain with M178D, N179S, W180N, A181S
notes: as for B1
B23: SEQ ID NO 42 (receptor)
chain: B20 chain with V22L, M178D, N179S, W180N, A181S
notes: as for B1
B24: SEQ ID NO 24 (receptor)
chain: B20 chain with M178P, N179I, A181T
notes: as for B1
B25: SEQ ID NO 114 (receptor)
chain: B17 chain with M18L, D19G, Q20S
notes: as for B1
B26: SEQ ID NO 28 (receptor)
chain: B20 chain with N179S
notes: as for B1
B27: SEQ ID NO 25 (receptor)
chain: B20 chain with M178V, N179A
notes: as for B1
B28: SEQ ID NO 29 (receptor)
chain: B20 chain with N179S, A181S
notes: as for B1
B29: SEQ ID NO 50 (receptor)
chain: B20 chain with V22L, N179S
notes: as for B1
B30: SEQ ID NO 49 (receptor)
chain: B20 chain with V22L, N179S, A181S
notes: as for B1
B31: SEQ ID NO 115 (receptor)
chain: B17 chain with M18L, D19R, Q20S
notes: as for B1
B32: SEQ ID NO 27 (receptor)
chain: B20 chain with M178P, N179A, A181T
notes: as for B1
B33: SEQ ID NO 111 (receptor)
chain: B17 chain with R49L, E140G, R173W
notes: as for B1
B34: SEQ ID NO 112 (receptor)
chain: B17 chain with K41R
notes: as for B1
B35: SEQ ID NO 113 (receptor)
chain: B17 chain with M18L, D19G
notes: as for B1
B36: SEQ ID NO 110 (receptor)
chain: B17 chain with W171R
notes: as for B1
B37: SEQ ID NO 46 (receptor)
chain: MAGHLPKPTLWAEPGSVITMDQPVTLRCQGGQETQEYRLYREKKTAPWITRIPQELVKKGQFPIPSITWEHAGRYRCYYGSDTSQWSASSDPLELVVTGVYIKPTLSAQPSPVVNSGGNVTLQCDSQVAFDGFILCKEGEDEHPQCLNSQPHARGSSRAIFSVGPVSPSRRWWYRCYAYDSWSPYEWSLPSDLLELDVDG
notes: as for B1
B38: SEQ ID NO 56 (receptor)
chain: B37 chain with D180P, S181I, S183T, S188T, P190G
notes: as for B1
B39: SEQ ID NO 59 (receptor)
chain: B37 chain with W182N, L189S, P190G
notes: as for B1
B40: SEQ ID NO 48 (receptor)
chain: B37 chain with S183A
notes: as for B1
B41: SEQ ID NO 52 (receptor)
chain: B37 chain with D180P, S181I, S183T, L189Q, P190M
notes: as for B1
B42: SEQ ID NO 58 (receptor)
chain: B37 chain with W182N, L189Q, P190M
notes: as for B1
B43: SEQ ID NO 53 (receptor)
chain: B37 chain with D180P, S181I, S183T, S188T, L189R, P190G
notes: as for B1
B44: SEQ ID NO 57 (receptor)
chain: B37 chain with W182N, S188T, L189R, P190G
notes: as for B1
B45: SEQ ID NO 55 (receptor)
chain: B37 chain with D180P, S181I, S183T, L189S, P190G
notes: as for B1
B46: SEQ ID NO 54 (receptor)
chain: B37 chain with D180P, S181I, S183T, L189T, P190S
notes: as for B1
B47: SEQ ID NO 47 (receptor)
chain: B37 chain with D180M, W182N, S183A
notes: as for B1
B48: SEQ ID NO 51 (receptor)
chain: B37 chain with D180P, S181I, S183T, P190G
notes: as for B1

The binders below were run against T1, HLA-A*0201 loaded with the Carcinoembryonic antigen (CEA)-derived … peptide (biotin on the C-terminal biotinylation tag) (assay: Biacore SPR).
T1 construct: Soluble, biotinylated, immobilised on a streptavidin chip
Experimental: SPR measures changes in refractive index expressed in response units (RU) near a sensor surface within a small flow cell, a principle that can be used to detect receptor ligand interactions and to analyse their affinity and kinetic parameters. The probe flow cells were prepared by immobilising the pMHC complexes in flow cells via biotin-tag binding. The assay was then performed by passing soluble ILT-like molecule over the surfaces of the different flow cells at a constant flow rate, measuring the SPR response in doing so.

Kd [nM]	koff [s⁻¹]	Binder
≤ 1000	≤ 2	B1
≤ 1000	≤ 2	B2
≤ 1000	≤ 2	B3
≤ 1000	≤ 2	B4
≤ 1000	≤ 2	B5
≤ 1000	≤ 2	B6
≤ 1000	≤ 2	B7
≤ 1000	≤ 2	B8
≤ 1000	≤ 2	B9
≤ 1000	≤ 2	B10
≤ 1000	≤ 2	B11
≤ 1000	≤ 2	B12
≤ 1000	≤ 2	B13
≤ 1000	≤ 2	B14
≤ 1000	≤ 2	B15
≤ 1000	≤ 2	B16
≤ 1000	≤ 2	B17
≤ 1000	≤ 2	B18
≤ 1000	≤ 2	B19
≤ 1000	≤ 2	B20
≤ 1000	≤ 2	B21
≤ 1000	≤ 2	B22
≤ 1000	≤ 2	B23
≤ 1000	≤ 2	B24

Kd [nM]	koff [s⁻¹]	Binder
≤ 1000	≤ 2	B25
≤ 1000	≤ 2	B26
≤ 1000	≤ 2	B27
≤ 1000	≤ 2	B28
≤ 1000	≤ 2	B29
≤ 1000	≤ 2	B30
≤ 1000	≤ 2	B31
≤ 1000	≤ 2	B32
≤ 1000	≤ 2	B33
≤ 1000	≤ 2	B34
≤ 1000	≤ 2	B35
≤ 1000	≤ 2	B36
≤ 1000	≤ 2	B37
≤ 1000	≤ 2	B38
≤ 1000	≤ 2	B39
≤ 1000	≤ 2	B40
≤ 1000	≤ 2	B41
≤ 1000	≤ 2	B42
≤ 1000	≤ 2	B43
≤ 1000	≤ 2	B44
≤ 1000	≤ 2	B45
≤ 1000	≤ 2	B46
≤ 1000	≤ 2	B47
≤ 1000	≤ 2	B48
